# Laboratory results taken from IntAct's records for PubMed 28712572.
# B1: Gamma-aminobutyric acid receptor-associated protein (Homo sapiens), O95166 (parent)
# chain: MKFVYKEEHPFEKRRSEGEKIRKKYPDRVPVIVEKAPKARIGDLDKKKYLVPSDLTVGQFYFLIRKRIHLRAEDALFFFVNNVIPPTSATMGQLYQEHHEEDFFLYIAYSDESVYGL
# Variants of: B1
# Conditions: with pcm1_human PCM1, Q15154
# Chain of pcm1_human PCM1, Q15154 (Q15154 whole entry): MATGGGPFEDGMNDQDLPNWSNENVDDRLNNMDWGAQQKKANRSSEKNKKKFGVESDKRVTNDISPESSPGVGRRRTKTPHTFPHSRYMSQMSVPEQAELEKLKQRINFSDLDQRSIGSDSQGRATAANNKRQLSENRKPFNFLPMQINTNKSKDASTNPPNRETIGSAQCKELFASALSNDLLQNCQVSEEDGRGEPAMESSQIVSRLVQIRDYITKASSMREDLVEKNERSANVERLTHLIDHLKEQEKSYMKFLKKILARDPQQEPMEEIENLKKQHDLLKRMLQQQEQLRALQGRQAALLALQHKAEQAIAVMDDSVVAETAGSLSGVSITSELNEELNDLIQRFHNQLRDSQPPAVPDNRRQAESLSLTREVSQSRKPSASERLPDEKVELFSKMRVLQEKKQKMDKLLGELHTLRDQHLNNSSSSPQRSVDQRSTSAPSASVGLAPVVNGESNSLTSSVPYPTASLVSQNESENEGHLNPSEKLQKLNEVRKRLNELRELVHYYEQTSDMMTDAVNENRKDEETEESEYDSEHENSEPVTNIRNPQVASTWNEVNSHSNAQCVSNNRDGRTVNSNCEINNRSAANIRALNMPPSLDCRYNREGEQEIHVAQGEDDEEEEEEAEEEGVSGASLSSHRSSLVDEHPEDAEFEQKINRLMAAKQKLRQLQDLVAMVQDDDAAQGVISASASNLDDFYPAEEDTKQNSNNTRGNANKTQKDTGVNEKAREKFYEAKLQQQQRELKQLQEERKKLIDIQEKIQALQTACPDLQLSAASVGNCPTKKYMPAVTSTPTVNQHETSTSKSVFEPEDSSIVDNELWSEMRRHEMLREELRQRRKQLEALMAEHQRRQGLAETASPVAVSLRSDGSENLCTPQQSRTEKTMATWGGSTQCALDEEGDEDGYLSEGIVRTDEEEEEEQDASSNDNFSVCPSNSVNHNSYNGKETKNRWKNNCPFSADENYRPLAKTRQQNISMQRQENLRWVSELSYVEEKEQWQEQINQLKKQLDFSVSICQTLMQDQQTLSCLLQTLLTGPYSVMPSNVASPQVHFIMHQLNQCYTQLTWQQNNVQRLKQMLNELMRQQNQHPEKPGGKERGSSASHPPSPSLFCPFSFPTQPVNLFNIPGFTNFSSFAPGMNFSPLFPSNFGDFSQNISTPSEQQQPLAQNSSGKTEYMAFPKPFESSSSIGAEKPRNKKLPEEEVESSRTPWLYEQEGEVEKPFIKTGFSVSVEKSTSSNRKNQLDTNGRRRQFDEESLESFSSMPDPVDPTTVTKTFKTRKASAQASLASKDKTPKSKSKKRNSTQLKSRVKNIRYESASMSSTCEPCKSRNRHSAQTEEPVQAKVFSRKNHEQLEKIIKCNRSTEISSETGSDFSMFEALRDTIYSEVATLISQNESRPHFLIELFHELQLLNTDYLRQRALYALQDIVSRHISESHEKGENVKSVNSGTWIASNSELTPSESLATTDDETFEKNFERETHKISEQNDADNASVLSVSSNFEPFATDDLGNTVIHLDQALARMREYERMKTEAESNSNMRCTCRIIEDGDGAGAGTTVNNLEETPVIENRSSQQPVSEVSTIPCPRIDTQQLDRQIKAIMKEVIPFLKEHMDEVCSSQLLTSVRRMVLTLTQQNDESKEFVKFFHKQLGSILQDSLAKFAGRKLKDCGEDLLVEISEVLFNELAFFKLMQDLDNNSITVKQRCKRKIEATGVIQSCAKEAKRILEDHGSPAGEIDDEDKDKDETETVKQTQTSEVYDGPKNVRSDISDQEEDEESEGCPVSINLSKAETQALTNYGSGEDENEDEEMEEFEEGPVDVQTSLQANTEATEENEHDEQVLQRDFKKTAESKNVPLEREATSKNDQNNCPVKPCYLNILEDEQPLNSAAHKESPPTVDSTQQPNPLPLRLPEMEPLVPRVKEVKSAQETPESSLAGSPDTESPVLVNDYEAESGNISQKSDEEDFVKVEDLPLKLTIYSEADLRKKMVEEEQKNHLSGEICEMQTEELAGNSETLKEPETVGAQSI
row,Variant,effect of a mutation on the interaction
1,G116A,with no effect
